Changes are numbered by the printed parent chain. Read-outs that look alike come from different tables or passages of the source.

Experiment [1] concerns the target T1, SARS-COV-2 RBD (His-tagged, Sinobiologicals) (SARS-CoV-2 (Wuhan), UniProt P0DTC2 319-541). The experiment in a line: ELISA, periplasmic extract 1/10, OD450 antigen/OD450 BSA.
The target in experiment [2] is T2, recombinant MERS-COV spike protein (MERS-CoV, UniProt K9N5Q8 18-1291).
T2 sequence: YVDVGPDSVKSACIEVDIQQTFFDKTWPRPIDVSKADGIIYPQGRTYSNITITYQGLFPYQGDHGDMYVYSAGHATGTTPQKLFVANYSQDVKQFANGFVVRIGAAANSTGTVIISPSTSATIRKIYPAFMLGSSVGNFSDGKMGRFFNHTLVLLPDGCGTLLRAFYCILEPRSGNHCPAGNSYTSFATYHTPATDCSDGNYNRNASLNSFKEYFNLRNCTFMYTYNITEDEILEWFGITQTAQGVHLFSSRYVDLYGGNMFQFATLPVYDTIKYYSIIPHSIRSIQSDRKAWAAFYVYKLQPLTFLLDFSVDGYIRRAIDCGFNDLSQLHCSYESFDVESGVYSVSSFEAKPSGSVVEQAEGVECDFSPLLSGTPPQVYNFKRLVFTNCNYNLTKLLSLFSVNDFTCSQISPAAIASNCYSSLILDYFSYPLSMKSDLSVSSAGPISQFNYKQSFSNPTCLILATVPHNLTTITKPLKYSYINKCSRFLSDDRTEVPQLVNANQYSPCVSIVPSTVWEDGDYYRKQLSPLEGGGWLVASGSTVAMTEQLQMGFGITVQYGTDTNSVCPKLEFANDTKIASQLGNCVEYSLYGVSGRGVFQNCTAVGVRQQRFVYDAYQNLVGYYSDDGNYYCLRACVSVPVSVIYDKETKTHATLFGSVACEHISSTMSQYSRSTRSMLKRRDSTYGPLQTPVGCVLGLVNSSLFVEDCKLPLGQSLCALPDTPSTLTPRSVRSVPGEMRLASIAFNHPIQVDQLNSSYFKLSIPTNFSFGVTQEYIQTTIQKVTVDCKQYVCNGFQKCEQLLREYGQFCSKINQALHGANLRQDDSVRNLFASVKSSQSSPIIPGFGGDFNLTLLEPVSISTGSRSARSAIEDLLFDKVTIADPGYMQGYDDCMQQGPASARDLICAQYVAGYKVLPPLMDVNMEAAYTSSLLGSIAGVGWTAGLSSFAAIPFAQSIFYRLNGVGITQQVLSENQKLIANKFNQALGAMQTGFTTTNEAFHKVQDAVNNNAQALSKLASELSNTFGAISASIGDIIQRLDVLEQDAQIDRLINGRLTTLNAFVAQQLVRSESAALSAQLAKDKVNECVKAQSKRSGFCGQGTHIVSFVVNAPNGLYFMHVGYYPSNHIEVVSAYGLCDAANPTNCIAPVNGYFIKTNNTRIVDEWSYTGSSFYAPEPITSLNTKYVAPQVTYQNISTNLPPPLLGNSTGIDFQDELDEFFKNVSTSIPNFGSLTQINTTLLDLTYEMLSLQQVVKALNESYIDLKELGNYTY
The experiment in a line: ELISA, periplasmic extract 1/10, heat map of binding (%). (In general: ELISA stands for enzyme-linked immunosorbent assay.)

The target in experiment [3] is T3, recombinant HKU1 spike protein (HCoV-HKU1, UniProt Q5MQD0 13-1276).
T3 sequence: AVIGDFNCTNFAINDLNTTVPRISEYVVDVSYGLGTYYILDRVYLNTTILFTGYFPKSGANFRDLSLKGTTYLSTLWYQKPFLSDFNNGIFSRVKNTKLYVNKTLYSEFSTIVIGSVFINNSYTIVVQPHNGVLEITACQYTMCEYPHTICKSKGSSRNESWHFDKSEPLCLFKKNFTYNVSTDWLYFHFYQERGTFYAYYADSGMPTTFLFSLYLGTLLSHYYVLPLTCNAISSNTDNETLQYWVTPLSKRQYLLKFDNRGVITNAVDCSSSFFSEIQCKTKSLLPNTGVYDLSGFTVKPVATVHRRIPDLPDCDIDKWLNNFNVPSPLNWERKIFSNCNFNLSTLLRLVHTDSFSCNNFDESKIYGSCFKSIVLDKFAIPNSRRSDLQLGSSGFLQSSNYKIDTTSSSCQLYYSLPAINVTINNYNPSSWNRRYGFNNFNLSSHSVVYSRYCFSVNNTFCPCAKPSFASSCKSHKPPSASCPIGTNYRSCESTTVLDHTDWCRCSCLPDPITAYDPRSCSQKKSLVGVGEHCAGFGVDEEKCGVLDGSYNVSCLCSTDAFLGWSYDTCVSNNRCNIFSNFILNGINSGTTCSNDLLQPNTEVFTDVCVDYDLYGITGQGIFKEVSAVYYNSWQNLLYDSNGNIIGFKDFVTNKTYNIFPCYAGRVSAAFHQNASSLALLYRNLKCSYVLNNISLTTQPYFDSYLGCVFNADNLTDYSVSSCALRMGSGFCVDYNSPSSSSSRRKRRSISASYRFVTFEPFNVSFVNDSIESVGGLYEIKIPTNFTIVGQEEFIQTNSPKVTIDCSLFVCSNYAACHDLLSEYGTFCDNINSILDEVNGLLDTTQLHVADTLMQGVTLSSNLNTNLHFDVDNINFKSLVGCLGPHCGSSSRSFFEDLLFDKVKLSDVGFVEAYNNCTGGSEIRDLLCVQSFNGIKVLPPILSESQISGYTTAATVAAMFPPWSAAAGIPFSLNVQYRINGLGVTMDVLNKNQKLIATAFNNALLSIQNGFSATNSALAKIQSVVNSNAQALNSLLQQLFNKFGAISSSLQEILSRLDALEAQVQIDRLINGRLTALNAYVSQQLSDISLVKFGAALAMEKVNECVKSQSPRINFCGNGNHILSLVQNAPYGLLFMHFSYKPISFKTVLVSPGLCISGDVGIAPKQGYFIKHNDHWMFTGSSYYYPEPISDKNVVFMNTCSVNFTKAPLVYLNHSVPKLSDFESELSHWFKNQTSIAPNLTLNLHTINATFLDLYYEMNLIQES
The description is as above.

For experiment [4], the target named is T1, SARS-COV-2 RBD (His-tagged, …). The experiment in a line: ELISA, periplasmic extract 1/10, OD450 antigen/OD450 BSA. The source holds these as a separate data set.

B1: VHH R3_DC5 (VHH)
VHH: QVQLQESGGGLVQAGDSLRLSCAASGRIFSTYTMGWFRQAPGMEREFVAAIRWSGSTVYYADSVKGRFTISRDNAKNTVYLQMNSLKPEDTAVYYCAAARVSKANYGTLWYRATGLYDYWGQGTQVTVSS
For B1, the binding result in experiment [1] is given as “no binding (tested: extract 1/10, concentration not given)”; in experiment [2] it was “no binding (tested: extract 1/10, concentration not given)”; in experiment [3], “no binding (tested: extract 1/10, concentration not given)”.

B2: VHH R3_DC19 (VHH)
VHH: QVQLQESGGGLVQPGDSLRLSCAVSGRPFSTYTMGWFRQAPGKEREFVAAMRWSGGTIYYADSVKGRFTISRDNDKNTVNLEMNSLKPEDTAVYYCAAAYVSKANYGSLWYRASGLYDYWGQGTQVTVSS
Consider B2, for which the binding result is recorded as “no binding (tested: extract 1/10, concentration not given)” in experiment [1]; “no binding (tested: extract 1/10, concentration not given)” in experiment [2]; “no binding (tested: extract 1/10, concentration not given)” in experiment [3].

B3: VHH R3_DC21 (VHH)
VHH: B2 VHH with P14A, K65R
As to B3, the binding result in experiment [1] is “no binding (tested: extract 1/10, concentration not given)”; in experiment [2], “no binding (tested: extract 1/10, concentration not given)”; in experiment [3], “no binding (tested: extract 1/10, concentration not given)”.

B4: 3.83 (VHH)
VHH: QVQLQESGGGLVQPGDSLRLSCVLSGGVFTSYAMGWFRQAPGKEREFLAAITFNSDATYYADSVKGRFTISRDNAKNTAYLQMNSLKPNDTAVYSCAAGGNHYNPQYYHDYDKYDHWGQGTQVTVSS
Consider B4, for which, in experiment [4], the binding result is listed as “binds”.

Source of the values: patent US20250313611A1 (VIB VZW, published 2025).
